Experimental findings from patent US8017576B2, “Methods and compositions to treat mucositis” (The University of Chicago, priority 2005, dated 2011) are described below.

For experiment [1], the system named is human colonic Caco2 (C2) cell monolayers. Nature of the experiment: Tight junction recovery after low-calcium disruption, ZO-1 confocal microscopy. It is filed as cell-based. As to conditions: low-calcium medium (3 μM) 1 hour, assessed 2 hours after addition; AMP peptide 8 μg/ml, KGF-1 100 ng/ml, EGF 100 ng/ml. The procedure: The AMP77-97 peptide prevented decreases in TJ proteins and epithelial integrity seen after treatment of human colonic Caco2 (C2) cell monolayers with the oxidant monochloramine, which disrupts intercellular junctions (FIG. 2; C,D). These cells were exposed to low-calcium medium (3 μM) for 1 hr to disrupt TJs, and then allowed to recover in medium containing AMP77-97 peptide, epidermal growth factor (EGF) or keratinocyte growth factor (KGF-1) which are known epithelial cell mitogens that might facilitate recovery of disrupted TJs. […] At the molecular level, AMP77-97 peptide facilitates the formation of TJs by enhancing translocation of several proteins (protein kinase C-zeta, Par6, Cdc42, ECT2 and Par3) from the cytosol into TJ domains.
Localization of the tight junction protein ZO-1 was monitored by indirect immunofluorescence laser scanning confocal microscopy in confluent monolayers of C2 cells. […] To disrupt tight junctions, cells were switched to low-calcium medium (3 μM) for 1 hour. Then a growth factor at a known mitogenic concentration was added to the medium, and 2 hours later its effect on tight junction formation was assessed by confocal microscopy. Vehicle, AMP peptide (8 μg/ml), KGF-1 (100 ng/ml), and EGF (100 ng/ml) were compared.

In experiment [2] the test system is stomach and intestinal epithelial cells. Nature of the experiment: Mitogenic and physiological effects on stomach and intestinal epithelial cells. It is filed as cell-based. From the text: The synthesis of AMP-18 is confined to lumenal mucosal lining epithelial cells of the gastric antrum of humans and other mammals. Inside cells the protein is co-localized with mucins in secretion granules, and appears to be secreted into the mucus overlying the apical plasma membrane. […] These include mitogenesis, restitution, maturation of barrier function, and cell protection after oxidant, non-steroidal anti-inflammatory (NSAID), and DSS-mediated injury. Certain of these physiological effects can occur at concentrations that are relatively low for rhAMP-18 (<50 μM) compared to the concentrations of other gastric peptide mediators such as trefoil peptides or the α-defensin, cryptdin 3 (>100 μM). […] AMP-18 likely plays a role in physiological and pathological processes such as wound healing in the gastric mucosal epithelium in vivo as may occur in gastritis secondary to NSAID drugs, other pharmaceutical agents and alcohol, ulcer disease, and the consequences of H. pylori infection and inflammation.

B1: KGF-1: keratinocyte growth factor, known epithelial cell mitogen (protein, UniProt P21781 32-194, looked up)
Fibroblast growth factor 7: CNDMTPEQMATNVNCSSPERHTRSYDYMEGGDIRVRRLFCRTQWYLRIDKRGKVKGTQEMKNNYNIMEIRTVAVGIVAIKGVESEFYLAMNKEGKLYAKKECNEDCNFKELILENHYNTYASAKWTHNGGEMFVALNQKGIPVRGKKTKKEQKTAHFLPMAIT
B1: the “formation of new tight junctions / localization of ZO-1” value in experiment [1] is “persistent separation of cells with TJ disruption and apparent loss of ZO-1”.

B2: rhAMP-18: recombinant human AMP-18 prepared in E. coli; Antrum Mucosal Protein-18 (gastrokine-1) (protein, UniProt Q9NS71 21-185, looked up)
Gastrokine-1: NYNINVNDDNNNAGSGQQSVSVNNEHNVANVDNNNGWDSWNSIWDYGNGFAATRLFQKKTCIVHKMNKEVMPSIQSLDALVKEKKLQGKGPGGPPPKGLMYSVNPNKVDDLSKFGKNIANMCRGIPTYMAEEMQEASLFFYSGTCYTTSVLWIVDISFCGDTVEN
B2: the “concentration for mitogenic effect relative to growth-promoting synthetic peptides” value in experiment [2] (recombinant protein prepared in E. coli) is reported as “an order of magnitude lower”. The “concentrations at which physiological effects occur” value in experiment [2] (rhAMP-18) is listed as less than 50 μM.
